# Tests used:
# [1] = test system: peripheral blood mononuclear cells (PBMCs); experiment: One-way mixed lymphocyte reaction (MLR); assay type: cell-based, human; conditions: for Proliferated cells (% of all CPD stained), Average: 60 mg tissue, 250K cells, 5 days; for Stimulation Index: vs PBMCs + saline
# Protocol: (§1) Cancellous and cortical bone tissue samples were obtained, processed and combined, to produce LyoGraft Bone Grafts. From each donor, cancellous tissue samples comprising cancellous bone were recovered and processed to provide cancellous granules, and cortical bone tissue samples were recovered and processed to provide cortical fibers. Quantities of cancellous granules and cortical fibers derived from the same donor were measured and combined to produce three test samples per donor, each of which contained about 40 wt % cancellous granules and about 60 wt % cortical fibers, the wt % being based on the total weight of the combined cancellous granules and cortical fibers of each sample. The total weights of the test samples (i.e., each comprising both cancellous granules and cortical fibers) ranged from 1.3 g to 1.6 g. The test samples were preserved after contact with protectants in solution, in accordance with the methods described hereinabove. Peripheral blood mononuclear cells (PBMCs) were procured from three unique blood donors in order to test for a one-way and two-war mixed lymphocyte reaction (MLR) assay. In a one-way set up, PBMCs are exposed to a test article, the lyopreserved tissue samples, and PBMC stimulation or lack thereof is assessed. In a two-way set up, mismatched blood donors are exposed to one another, and an ongoing reaction is stimulated. This ongoing reaction is then put in presence of a test article, the lyopreserved tissue samples, and stimulation or inhibition of this ongoing reaction are assessed. […] Two-way MLR testing was performed on three lyopreserved donor lots to assess the inhibitory or stimulatory effects of an ongoing/developing immunogenic reaction between two mismatched blood donors.
# • 11. Blood was obtained from three unique donors and PBMCs were isolated. • 12. PBMCs were stained with a tracking dye, CPD-670, and added to 96-well round bottom culture plates for one-way MLR assay. • 12.1 This dye is used to determine whether or not an immune response has been induced. If there is an immune reaction, cells will proliferate in response to a stimulator, in this case lyopreserved tissue, and dilute the CPD-670 stain. The dilution of the stain decreases the fluorescence signal which will be used to measure any differences across test samples compared to the saline negative control and concanavalin A positive control. • 13. Lyopreserved samples are prepared by adding 30 mL of sterile saline USP to smaller units (Donor 1 and 3) or filling 2 oz jar to the top (60 mL) with saline for larger units (Donor 2), incubating for 2 mins, decanting, and tap-drying with sterile gauze. • 14. 60 mg of lyopreserved tissue per donor and 20 uL of saline were added in tripliciate for each PBMC donor in 96 well plates. • 14.1 Saline is used as a negative control. • 15. PBMCs were added to each test group (250K cells) and incubated for 5 days at 37° C. in 5% CO2 in humidifier incubator. • 16. To calculate % proliferation, cells with decreased dye fluorescent signal were compared to the total number of positively stained cells. • 17. Concanavalin A (ConA) was used as a stimulation positive control to ensure that cells (PBMC) were in good condition to proliferate. • 18. Stimulation Index (SI) was calculated as proliferating cell percentage from wells with PBMCs+lyopreserved tissue sample divided by proliferating cell percentage from PBMCs+saline.
# [2] = test system: mismatched peripheral blood mononuclear cells (PBMCs); experiment: Two-way mixed lymphocyte reaction (MLR); assay type: cell-based, human; conditions: for Stimulation Index: vs same MLR + saline
# Protocol: as §1
# • 19. Cells (PBMC) from each of two donors were added to wells of 96-well round bottom culture plates. • 20. Only cells from one of the two donors were stained with tracking dye, CPD-670, considered the responder cells. The other donor cells were left unstained, considered the inducer cells. • 21. Assay was repeated using 3 different combinations of responder/inducer cells. • 22. The amount of proliferating responder cells indicates an immune reaction induced by the mismatched inducer cells and is shown as cells with reduced dye content after six days of co-incubation. • 23. Virtuos samples are prepared by adding 30 mL of sterile saline USP to smaller units (Donor 1 and 3) or filling 2 oz jar to the top (60 mL) with saline for larger units (Donor 2), incubating for 2 mins, decanting, and tap-drying with sterile gauze. • 24. 60 mg of lyopreserved tissue per donor and 20 uL of saline were added in triplicate for each PBMC donor in 96 well plates. • 24.1 Saline is used as a negative control. • 25. PBMCs from two mismatched blood donors were added to each test group (250K cells per blood donor) and incubated for 5 days at 37° C. in 5% CO2 in humidifier incubator. • 26. Concanavalin A (ConA) was used as a stimulation positive control to ensure that cells (PBMC) were in good condition to proliferate. • 27. Stimulation Index (SI) was calculated as proliferating cell percentage from wells with two mismatched donors with lyopreserved tissue divided by proliferating cell percentage from wells with the same mismatched donor cells treated with saline.
# [3] = Donor A-CPD + Donor B-Unstained MLR
# [4] = Donor B-CPD + Donor C-Unstained MLR
# [5] = Donor C-CPD + Donor A-Unstained MLR
substance,measurement,setting,value
Concanavalin A [ConA],"Proliferated cells (% of all CPD stained), Average",[1]; PBMC Donor A,45.2%
same,Stimulation Index,[1]; PBMC Donor A,28.0
same,"Proliferated cells (% of all CPD stained), Average",[1]; PBMC Donor B,61.5%
same,Stimulation Index,[1]; PBMC Donor B,100.3
same,"Proliferated cells (% of all CPD stained), Average",[1]; PBMC Donor C,60.6%
same,Stimulation Index,[1]; PBMC Donor C,155.4
same,"Proliferated cells (% of all CPD stained), Average",[2]; [3],57.8%
same,Stimulation Index,[2]; [3],8.1
same,"Proliferated cells (% of all CPD stained), Average",[2]; [4],39.5%
same,Stimulation Index,[2]; [4],5.3
same,"Proliferated cells (% of all CPD stained), Average",[2]; [5],50.6%
same,Stimulation Index,[2]; [5],4.9
